What was measured:
Assay in all cases: cell-based or functional assay
[1] = molecular target: T1, AVR3a homolog from Phytophthora palmivora designated as L3B (Phytophthora palmivora)
T1 sequence: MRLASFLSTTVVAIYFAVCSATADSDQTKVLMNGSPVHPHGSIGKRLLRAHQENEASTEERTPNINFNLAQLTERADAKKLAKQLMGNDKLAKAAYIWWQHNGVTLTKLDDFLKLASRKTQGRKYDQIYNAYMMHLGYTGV

[2] = molecular target: T2, AVR3a homolog from Phytophthora palmivora designated as L6B (Phytophthora palmivora)
T2 sequence: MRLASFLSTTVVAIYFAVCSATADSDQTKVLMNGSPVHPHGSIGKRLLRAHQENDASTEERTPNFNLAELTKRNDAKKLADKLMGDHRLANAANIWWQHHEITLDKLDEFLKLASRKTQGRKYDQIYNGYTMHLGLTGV

[3] = molecular target: T3, AVR3a homolog from Phytophthora palmivora designated as L7B (Phytophthora palmivora)
T3 sequence: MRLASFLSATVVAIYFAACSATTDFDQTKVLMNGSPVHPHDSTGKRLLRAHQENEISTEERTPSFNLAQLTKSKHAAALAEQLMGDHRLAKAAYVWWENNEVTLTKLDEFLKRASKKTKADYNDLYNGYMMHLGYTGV

[4] = molecular target: AVR3a^KI effector protein of Phytophthora infestans (Phytophthora infestans) (UniProt Q572D3)

B1: wild-type R3a protein (protein)
chain: MEIGLAVGGAFLSSALNVLFDRLAPHGDLLNMFQKHKDHVKLLKKLEDILLGLQIVLSDAENKQASNRHVSQWFNKLQNAVDGAENLIEQVNYEALRLKVEGQHQNLAETSNQQVSDLNLCFSDDFFLNIKDKLEETIETLEVLEKQIGRLGLKEHFGSTKQETRTPSTSLVDDSDIFGRQNDIEDLIDRLLSEDASGKKRTVVPIVGMGGLGKTTLAKAVYNDERVQIHFGLKAWFCVSEAFDAFRITKGLLQEIGSFDLKADDNLNQLQVKLKERLKGKKFLIVLDDVWNDNYNKWDELRNVFVQGDIGSKIIVTTRKESVALMMGNEQISMDNLSTESSWSLFKTHAFENMGPMGHPELEEVGKQIAAKCKGLPLALKTLAGMLRSKSEVEEWKRILRSEIWELPHNDILPALMLSYNDLPAHLKRCFSFCAIFPKDYPFRKEQVIHLWIANGLVPQEDVIIEDSGNQYFLELRSRSLFERVPNPSQGNTENLFLMHDLVNDLAQIASSKLCIRLEESQGSHMLEQSQHLSYSMGYGGEFEKLTPLYKLEQLRTLLPTCIDLPDCCHHLSKRVLHNILPRLTSLRALSLSCYEIVELPNDLFIKLKLLRFLDISRTEIKRLPDSICALYNLETLLLSSCYDLEELPLQMEKLINLRHLDISNTRLLKMPLHLSKLKSLQVLVGAKFLIGGLRMEDLGEVHNLYGSLSVVELQNVVDRREAVKAKMREKNHVDRLYLEWSGSSSADNSQTERDILDELRPHKNIKVVKITGYRGTNFPNWLADPLFLKLVKLSLRNCKNCYSLPALGQLPFLKFLSIREMHGITEVTEEFYGSWSSKKPFNCLEKLEFKDMPEWKQWDLLGSGEFPILEKLLIENCPELSLETVPIQLSSLKSFDVIGSPLVINFPLSILPTTLKRIKISDCQKLKLEQPTGEISMFLEELTLIKCDCIDDISPELLPRARKLWVQDWHNLTRFLIPTATETLDIWNCENVEILSVACGGTQMTSLTIAYCKKLKWLPERMQELLPSLKELHLSNCPEIESFPEGGLPFNLQQLAIRYCKKLVNGRKEWHLQRRLCLTALIIYHDGSDEEIVGGENWELPSSIQRLTIVNLKTLSSQHLKNLTSLQYLFIRGNLPQIQPMLEQGQCSHLTSLQSLQISSLQSLPESALPSSLSHLEISHCPNLQSLPESALPSSLSQLTINNCPNLQSLSESTLPSSLSQLEISFCPNLQYLPLKGMPSSLSELSIYKCPLLKPQLEFDKGEYWPNIAQFPTIKIDRECM
4: Cell death/HR intensity, pVnt1-R3a, 3dpi [4]
1: Cell death/HR intensity, pBIN::35S-R3a, 2dpi [1] | Cell death/HR intensity, pBIN::35S-R3a, 2dpi [3] | Cell death/HR intensity, pBIN::35S-R3a, 3dpi [3] | Cell death/HR intensity, pVnt1-R3a, 2dpi [3] | Cell death/HR intensity, pVnt1-R3a, 3dpi [3] | Cell death/HR intensity, pBIN::35S-R3a, 1dpi [4] | Cell death/HR intensity, pBIN::35S-R3a, 2dpi [4]
3: Cell death/HR intensity, pVnt1-R3a, 2dpi [4]
0: Cell death/HR intensity, pBIN::35S-R3a, 1dpi [1] | Cell death/HR intensity, pVnt1-R3a, 1dpi [1] | Cell death/HR intensity, pVnt1-R3a, 2dpi [1] | Cell death/HR intensity, pVnt1-R3a, 3dpi [1] | Cell death/HR intensity, pBIN::35S-R3a, 1dpi [2] | Cell death/HR intensity, pBIN::35S-R3a, 2dpi [2] | Cell death/HR intensity, pBIN::35S-R3a, 3dpi [2] | Cell death/HR intensity, pVnt1-R3a, 1dpi [2] | Cell death/HR intensity, pVnt1-R3a, 2dpi [2] | Cell death/HR intensity, pVnt1-R3a, 3dpi [2] | Cell death/HR intensity, pBIN::35S-R3a, 1dpi [3] | Cell death/HR intensity, pVnt1-R3a, 1dpi [3]
2: Cell death/HR intensity, pBIN::35S-R3a, 3dpi [1] | Cell death/HR intensity, pBIN::35S-R3a, 3dpi [4] | Cell death/HR intensity, pVnt1-R3a, 1dpi [4]
